Results from the supplement of paper PMC10567573.
± gives the standard deviation.

Assay: protein stability index of a GFP-peptide fusion (GPS, HEK-293T) (PSI 1-6); higher = more stable
Details: c terminus: a fixed tail appended
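Also: 24-mer peptide tiles fused after GFP, lentivirally expressed, FACS-sorted into six equal bins by GFP/DsRed ratio, decoded by Illumina sequencing, PSI is the read-weighted mean bin number.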

Sequence | protein stability index (treatment: DMSO) | protein stability index (treatment: MLN4924 1 uM, 8 h)
EAARLEYDAYRTDLEELSLGPRDA [ARFIP2] | 4.78 ± 0.15 | 4.86 ± 0.15
LRRAWFSWPRASPASGASSIKPEA [SCNN1D] | 2.99 ± 0.18 | 3.04 ± 0.19
RAPACSPEAAAAQLRATAGSLILP [FCHO1] | 3.12 ± 0.38 | 3.15 ± 0.34
GEKEEEDKDDEEKPKIEDVGSDEE [HSP90AB1] | 5.6 ± 0.24 | 5.77 ± 0.12
RVEESGSKKEGKRQGPKEPPRKSG [PBXIP1] | 5.33 ± 0.17 | 5.33 ± 0.48
SDGTDEPESKEPVEKEEEPDPEPP [SMG5] | 5.67 ± 0.23 | 5.62 ± 0.18
KFMLREQFEANGYFFKRPYPFVLF [KMT2E] | 3.41 ± 0.39 | 2.73 ± 0.97
VFPIKHYQDKIRPYIQLPSHSNIT [TRIB1] | 2.5 ± 0.22 | 2.62 ± 0.22
EDLMPLAAAYGHALEQYEGESWRE [P3H4] | 4.59 ± 0.53 | 4.86 ± 0.17
QSVSYSKLLSVIVWMLMLLLAVPN [P2RY14] | 3.24 ± 0.27 | 3.17 ± 0.49
RRDPSIPIYGLRQSILLNTRLQDC [C22orf31] | 2.74 ± 0.55 | 2.37 ± 0.31
FSGCLNCSKVSELTERLKVLEAKM [EMID1] | 2.83 ± 0.29 | 2.926 ± 0.029
IADRAAHDESPGNNVVDISVPPTT [RAB11B] | 5.43 ± 0.24 | 5.21 ± 0.13
HSSPVDLKIPQVRGMDLSWESRTG [LCOR] | 3.43 ± 0.33 | 3.65 ± 0.31
SKTNLIVNYLPQNMTQDEFKSLFG [ELAVL3] | 2.63 ± 0.28 | 2.79 ± 0.22
MNYMPGTASLIEDIDKKHLVLLRD [LSM1] | 3.15 ± 0.16 | 3.27 ± 0.32
GQCVQAFETHESDINSVRYYPSGD [GNB5] | 4.52 ± 0.12 | 4.46 ± 0.093
YRLTEHERAHKGEKPYGCSECGKA [ZNF649] | 4.55 ± 0.38 | 4.85 ± 0.36
GGQITDEMAEQLMTLAYDNGINLF [KCNAB2] | 2.79 ± 0.17 | 2.9 ± 0.35
DQNRDGFIDKEDLKDTYASLGKTN [MYL5] | 5.12 ± 0.092 | 5.2 ± 0.14
SMLLQRFSVAPHETQTQRGGEFQC [RNF180] | 3.05 ± 0.097 | 3.31 ± 0.26
AVAGPPAAAEVGGGVGGSSRARSA [ANKRD17] | 5.36 ± 0.22 | 5.14 ± 0.33

Sequence | protein stability index (treatment: DMSO) | protein stability index (treatment: MLN4924 1 uM, 8 h)
QSMSEEEREKVTPLMVKGFRDAAE [SEPHS2] | 5.01 ± 0.27 | 4.88 ± 0.24
EKEQEKMRQDLEEERVALNTEIEK [PKD2L1] | 5.45 ± 0.27 | 5.64 ± 0.15
RLFQVVGKTDDTLALLNLACMMTI [TMEM175] | 2.92 ± 0.53 | 2.65 ± 0.56
DGKLSFEEFKAYFADGVLSGEELH [NECAB1] | 4.23 ± 0.28 | 4.14 ± 0.37
AIRRFQSMPVRLLGHSPVLRNITN [CDC25B] | 2.42 ± 0.35 | 2.24 ± 0.22
HVIHIIDFGLAKEYIDPETKKHIP [CSNK1G1] | 1.99 ± 0.29 | 2.16 ± 0.087
YFYLGGARGAGPPEPLRICPLHIS [TRIM35] | 2.44 ± 0.28 | 2.04 ± 0.32
LCKEMVPLAEQTPLTLQSQPKEPQ [ZSCAN9] | 5 ± 0.13 | 5.04 ± 0.24
PRTSEAQARKALFEKWEQETAAGK [SMTNL2] | 5.1 ± 0.31 | 5.02 ± 0.24
SLSHTELEAAEVILEHAHRGEQTT [FCHSD1] | 5.22 ± 0.26 | 5.28 ± 0.11
DTINRSVLDFDFEKLCSISLSHIN [USP39] | 2.6 ± 0.32 | 2.79 ± 0.24
IELDRTIMPDGTIVTTVTTVQSRP [C2CD2L] | 2.1 ± 0.14 | 2.09 ± 0.23
NIQETHRLYRLKLEELTKLQNNCT [TMEM120A] | 2.92 ± 0.19 | 3.08 ± 0.29
FVAENSSLHPESGQENDATSPHFS [CD69] | 3.74 ± 0.56 | 4.23 ± 0.42
AIIGWLLTTCTSNVAASNAKLALF [INTS3] | 3.13 ± 0.21 | 3 ± 0.45
MVHINRALKLIIRLFLVEDLVDSL [RTN3] | 2.88 ± 0.31 | 2.92 ± 0.53
ESVTHHDYRMELAQAGTPAPTKPH [SPAG8] | 4.95 ± 0.26 | 4.99 ± 0.12
EPVAAGSGIPEVKCYLNGVKVPGI [CLCN6] | 3.19 ± 0.61 | 3.59 ± 0.34
AELLIFSVPIVYEKYKTQIDHYVG [RTN3] | 2.65 ± 0.77 | 2.61 ± 0.56
HFSLRVQSRANGVKYPELVLEHSL [PCDHGA10] | 2.35 ± 0.29 | 2.27 ± 0.35
SLKDGLSDSDSELSSSEGLEPGSA [PSD2] | 5.47 ± 0.28 | 5.6 ± 0.13
CHRRYSCAHCRAHLANHDDLISKS [YPEL3] | 2.44 ± 0.46 | 2.81 ± 0.4
